PMC5292665, “Structural evidence for Arabidopsis glutathione transferase AtGSTF2 functioning as a transporter of small organic ligands” (FEBS Open Bio, 2016)

Target: the molecule itself
Experiment: crystal structure; AtGSTF2 (10 mg/mL) co-crystallised with small-molecule ligands 1-4 (5 or 10 mM); four structures at 2.00-2.77 Å; dimers in the asymmetric unit

B1: Arabidopsis thaliana phi class glutathione transferase AtGSTF2 (enzyme)
chain: MAGIKVFGHPASIATRRVLIALHEKNLDFELVHVELKDGEHKKEPFLSRNPFGQVPAFEDGDLKLFESRAITQYIAHRYENQGTNLLQTDSKNISQYAIMAIGMQVEDHQFDPVASKLAFEQIFKSIYGLTTDEAVVAEEEAKLAKVLDVYEARLKEFKYLAGETFTLTDLHHIPAIQYLLGTPTKKLFTERPRVNEWVAEITKRPASEKVQ
notes: AtGSTF2, phi class glutathione transferase of Arabidopsis thaliana; no tag is named, and the protein was purified on GSH sepharose; also called phi class GST; source: E. coli Tuner (DE3) with pRARE, purified (GSH sepharose 4B, S75 Superdex gel filtration)
In the case of B1, the “stoichiometry N” value is reported as 2.
